For the test, the target named is recombinant full-length IsdB, Q2FHV2. Briefly: ELISA. Conditions: chain shown with the change. (An ELISA detects its analyte on a solid surface through an enzyme-linked reagent.)

The results in this text go back to paper PMC5120205.

B1: D4-10-N1 antibody (human IgG) H:Y52A; H:F53A (protein)
chain 1: QVQLQESGPGLVKPSETLSLICTVSGGSISSSSYYWGWIRQTPERNLEWIGIIAASGTTYYNPSLQSRVSMSLDRSTNRFSLRLSSVTAADTAIYYCAKPKSRDRGGPGDDYFGMDVWGQGIMVTVSS
chain 2: DIQLTQSPSFLSASVADRVTITCRASQAVRSSLAWYQQKPGKAPQLLIYSASTLENGVSSRFSGSGPGTEFTLTISSLQPEDVGTYYCQQLNTYPFTFGPGTKVEIK
With B1, the percent of parent was 9%.
